Experiment: label from the status in PepcDB records
For “MPANPRQDLDRYRAKRDFARTPEPQGRSEAPRPEAESLSFVVQKHAASRLHWDFRLEWNGVLLSWAVTRGPSPDPSARRLAVRTEDHPLDYAEFEGTIPKGEYGGGTVMLWDRGTWEPQGDFAEGLRTGQLKIRLAGERMRGRWTLVRMKPRPREKAENWLLIKEHDTHESEQTEELVERHMTSVATGRTMEQIAAGKAPPRRTRQAALPAFRPLQLARLVSAAPEGEDWIHETKFDGYRCLAALAGGRARLYTRSGLDWTAKFGALVEDVEALEAQEALIDGEVIAPGREGGSFSELQARLKSGGQLLFMTFDLLLLDGEDLTGQPLLARKERLKTLIGKGRGAVRFSGHIRGHGPEVHERICAAGLEGIVSKRASAPYAGSRNGDWLKVKCAHRQEFVICGWNASDKPGRPFASLVMGSYEKSRLVYRGSVGSGFGAPLFRELKPLLAERAQSACPFDRTPAEAKGAHWLKPELVAEVSFTELTAEGHIRHGVFAGLRSDKDAREVRLEEPAPETPAPRKSGVRKKGTKTARPDAPSPDEPAPEPARKPRTARGEKKETTMARPDDLRVAGIRISHPDRRIYDRPAVTKREVAEHAEALAPRMLRFLKDRPVSLLRCPEGAAAECFFQKHRTRGMPVAMKTVPVETKSGPEDFITLPDVAALVGATQMGTLEFHIWGSRNRSLQRPDRLVFDLDPDEGLDFAHVRTAAAELRGLLTDLGLPSVPMLSGGKGVHVIVPLKPKAEWESVKLFSRALATHLAQEAPDRYTATMAKAGRKGRIFIDWLRNDRGSTAIAPYSLRARPGAPVATPVDWDELASARSGGDWTIRSIRDRLDRPCPLAEASARPATLGRTVIGRLERLVAGGKP”, the protein production was “failed”.
For “MPAPLRFSSDKPLLLLIDMQQAVDDPSWGPRNHPQAEQACAGLLQAWRARGLPLIHIRHDSVEPNSTYRPGQPGHAFKPEVEPRPGETVIAKQTNSAFIGTGLEALLRANGWLELVVAGVSTSNSVEATVRMAGNLGFAVCLAEDGCFTFDKTDWHGRRRSADEVHAMSLANLDGEYCRVCGSADILAALGNIAGAA”, the protein production was “not failed”.
In the case of “MPAPRFAQASEVPGLAARRIAADILDGVLQKRRMLDDQLEGPAAHPGLKTLSDRDRALMRRLVATILRRLGTLEGLLAKLLDRGVPTDAPRAKSALLIGAAQILWMDVPDHAAVDLSVRLVQSDRRAAKYAGLVNAVLRRCAREGQPLVEELAAGTPDVPQWLLARWSEHYGAETTRAIAHAISHEPSLDLTVKSDPAHWAARLHGEVLPTGTVRTLLQGSVRMLPGFDEGQWWVQDAAAALPARLFGDIAGKSVADLCAAPGGKTAQLAAAGARVTAIDRSPARVARLRENLARLSLKVETGVADAAEWRGDATAEFDAVLIDAPCASTGTIRRHPDVAWLKQESDIGALAAVQNRLLKKAASLLRPGGTLVYCTCSLEPEEGEQAIAALLDAESSMRRQPIDPAEVAGLAEIVTTDGALRTLPCHLPHSDPRLAGLDGFYAARLVKSL”, the protein production is reported as “failed”.
With “MPAPTHGCPLPRFSVIVPAYKVQAYLHECLESVLEQSFPDLELIAVDDCSPDACGAIIDEFAARDTRVRPVHLPQNTGLGRARNAALAEATGDYLIFLDADDSLTPGALQAVADRIKETSEPDVLVYDYARTFWSGETVRNREAGQLTEQGPAPFRLDDRPGLLNVLMVVWNKAYRREFVEREGFTFPPGLYEDTPWTYPALMAAETVATLDRVCVHYRQRRRGNILGTTGRGHFDIFGQYDRVFAYLDGHPELAHWRPVLFRRMVDHVATVFTRRGRLPRGSHAEFLRRARAHYRRHRTPGPPARPRFRLRHVLVRLGSHRTYRLLSLASRTRVRTARSATAVLGRLAGVALQAHYRLQRRLPVRADRAVFASHQGQGHGCNPGALEAAFRTLAPHIRTAWIARPEHHHTVPAATRRVRPGSAAYWTALARSKYLVSNADFDRRLRKRPGQIVIQTHAGTPLKRMGLDLQDRPAAARDTDFAQVLRGADQWDYCLSANRHSTLVWERVFPSGFTTLEYGQPRNDRFQQATSADVTRLRESLGIPHGSVAILYAPTYRDYRRSQRHLLDLERVLRQLGPRYVVLTRAHPSYGAPLTRSDGARLIDVSGHPSVESLCLASDALVTDYSSLMFDYANLDRPIVVYADDWEAYEAARGTYFDLRAFPPGAVARTEEELIDIFATGHWRGSRAAQLRAAFRARFCPYDDGRAAERVVRRIVLGEGAREGERNSEGDGGATGLPPVVPLAGRHPVPSAAAALARPPLATVPHPAGPVPVVDSP” the protein production was “failed”.
For “MPAYVFSKESFLKFLEGHLEDDVVVVVSSDVTDFCKKLSESMVGEKEYCFAEFAFPADIFDADEDEIDEMMKYAIVFVEKEKLSEAGRNAIR”, the protein production was “not failed”.
For “MPCCSHRRCREDPGTSESQEMEEWALLDISQRKLYKEVMLETFRNLTSVGKSWKDQNIEYEYQNPRRNFRSLIEKKVNEIKDDSHCGETFTQVPDDRLNFQEKKASPEIKSCDSFVCGEVGLGNSSFNMNIRGDIGHKAYEYQEYGPKP”, the protein production was “failed”.
For “MPDGPDPSSYGPDESPGPDPEEPSSSETAPARHARTTTASRRGHARERMPVSPDESASTFTFDRVVRFLLGAAAVGSVGWMVWYFAGIVLYLIVGGLLAYLLRPPVDYIQGLGVGRVPAILVAFAVFLGVIVVIVTSVVPFITRQVQDLSQLITIDTAAYVANLIEAQVQGVVPLEQGVLEENVRQAAESLMRGDLVEGQQVAETVSSVVSVFTNIVYAVVIVPFVTFFLLKDELRIRRSLLHLVPNRYFEVTLSILAKVELNIGRYFRALLVQGTAIAVIASTLLWIVGLRGAIAIGIFTGLANTIPYFGPFLGFLAGTLVGIAQTGDVSLVPGVALAMALTQLADNVLLQPLIFSRAAQTHPLVILFVVLAGAQLGGILGMLMAIPLTTTLRVIVEQLLWSLRNYRILRAG”, the protein production was “failed”.
With “MPDKFNMQSPPFNRLTAEQQHQLRSALDVAYFRQRDVLIDAQHPVTHLHILIKGTVEERSPDGKEVFAHYANDDLFDVRAMFEELSKHQYMALEDTLSYLLPKSIFLQLYEQNGEFAAYFDNNLAKRQELIEAAAQQKNIAEFILTKVDRSIYHPPFILSPEQPIHSVTQQLKERGIDAALVELHPSDPRLAHNHAHPYAIVTRTNMLHAVMLEGRPLDTPVGEIATFPVLHVDEGDFLFNAMVMMTRQRIKRVMVCLGNQAVGLLSLIQILSAFSTHSHVLTLAIARAASIDELALAANKQRELVESLMSRGVRTRFVMELIAAVNEQIIEKAFELVVPPALHDQCCLVVLGSEGRGEQILKTDQDNALIIQDGLEWHQCQPIMETLTHTLLQLGYPLCPGKVMVNNPKWVRSQSDWKRTLTDWVKAARPEQVMDIAIFADAHAVAGNRALLAPVKAHLQHLMAGQELILAEFTRPALNFSVPLTLFGNVKSSKQGIDIKQGGIFPIVHGVRALSLEHAIDANNTFDRIEALVKKRVLEQETGDNLSEAFKLFLKLRLAQQLGNQHSTNQLDFKQLDRTERDLLRHSLHVVKKFKQWLGYHYQIRD” the protein production was “failed”.
For “MPDKPMQYVISRLIDNRTRTRILAPVSALTVKAAREKATGQLQAWREEHTQPSMSASPRFDVFVEQTWKPMIFEHWKPSTKRSVLPALNRRLLAHFGRYPLHMINHKMVQAWFDEISKTRKGAANRNLDTLQSVFKLALRQGHCLTNPCIGIRQNKRRVLNRFLSVAEMQRLSVALDECEAVGGSIAQCADVLRLLLLTGCRLSEITFLKGEYVRGNELHLPDSKTGAKVLYIGQAAVDILSRYHCKANTELFPMKQGASTSLVQSLWLRLRKQIGVEDVRLHDLRHTFASYAVMDGCSIPMVASLLGHKKVTMTLRYTHVGDDSVEQASEVIGAVFKGIFTQPEPPKPLIPRTNETPMPAVKVKQKRLPERKPTAKPKPKAVKKVKQVKPLQKLPTLTKEELRAIQRFRDSELFDRVKIG”, the protein production was “failed”.
For “MPDLPLAPEALDLSPAFLEVAACPACHSRFALDFDSGELVCSSPSCGLAFLVRDGVPDLRLDAARKRETGQGVTAEDTEAFEPTHRHEMRPQ”, the protein production was “failed”.
For “MPDNEVDLLFAQLSPEDLIEWSDYLPESFTDRALAQMGERQRQRFELYDQYSENEIGRYTDHQMLVLSDKATVAQAQRFFRRIELDCNDNLFIVDEADKYLGTVRRYDIFKHEPHEPLISLLSEDSRALTANTTLLDAAEAIEHSREIELPVIDDAGELIGRVTLRAATALVREHYEAQLMATAGMDESDDLFAPILKGAQRRAV”, the protein production was “not failed”.
With “MPDSPFVSVVVPVYNDPEGVKDTLHALVDQRDAPAFEVRVVDNDSTDETMQVIEAFAADHPEIYCHTETEIQSSYAARNTGIEHAGGDVIVFLDADVVVERTCLRDISRTFEGSDVDYVGCNVQMYNPGETDTFWTKYDLAMGLPVEHYLRRKRFAPTCALAVRREVIEAVGTFDDELVSGGDKEFGNRVSEAGFRMGFAEGIVAKHPARTSLKRNIQKSTRIGKGQVQLWAGYGLAAHPVSYTRYLPPDPQRVRNRRDAQFDLVSIYLAEILLKYVQSATVLYLYLKRLLKRVSGDTT” the protein production was “failed”.
For “MPEFTNNPVAECDTVFSEKDGKKIVDFIIYPAKNGDQWVGTAVEAKSMGFGGELKVLVGFDAEGKIYNYSLLSHAETPGLGSKAADWFKEGNKGSIKGMNPGEQPLTVSKDGGQVDAITASTITSRAFLNAVNAAYGAYKGDGGANGTTGASQKAVQKSETAIVDSVVIKLEHHHHHH”, the protein production was “not failed”.
With “MPEIEIAAGSGDNNDALFGKYELGKLLGCGAFAKVFHARDRRTGQSVAVKILNKKKLLTNPALANNIKREISIMRRLSHPNIVKLHEVMATKSKIFFAMEFVKGGELFNKISKHGRLSEDLSRRYFQQLISAVGYCHARGVYHRDLKPENLLIDENGNLKVSDFGLSALTDQIRPDGLLHTLCGTPAYVAPEILSKKGYEGAKVDVWSCGIVLFVLVAGYLPFNDPNVMNMYKKIYKGEYRFPRWMSPDLKRFVSRLLDINPETRITIDEILKDPWFVRGGFKQIKFHDDEIEDQKVESSLEAVKSLNAFDLISYSSGLDLSGLFAGCSNSSGESERFLSEKSPEMLAEEVEGFAREENLRMKKKKEEEYGFEMEGQNGKFGIGICISRLNDLLVVVEARRRGGDGDCYKEMWNGKLRVQLIRVCDQTSSTNAAI” the protein production was “failed”.
For “MPEMADVMQTQAGDAGAFRHFDLSRVPTPCFVVDEVAIERNLKILRDISDRSGAHVLSALKAFSMFTLAPLVRQYLGGTCASGIYEARLGREEYGGEVATFCAGYKEQDIDEILSLSNHIIFNSPAQKDRFLSRAQAAGVQVGLRINPEHSEGEIAKYDPCAPCSRLGTPVSLLTPETLKGVDGLHMHTLCEQGFEPLLRTWAAVEPKLAPYLPGLKWLNFGGGHHITRADYDRDALIDFLKSLRARHGLDVYLEPGEAVALDAGILVGEILDLPSNGMDLAITDISATCHMPDVIEAPYRPALMDEADSGHTYRLGGPSCLAGDVIGDYTWDQPLTIGQRFAFLDQAHYSMVKTNTFNGVPLPTIALWNSKTDALRIVRQFDYSDFKDRLS”, the protein production was “not failed”.
With “MPEVSFIICTRNRVAVLEACLKSVQAACRAHAGFAAELVVVDNGSSDRTAERLASIAAMSDIPFTPVSEPRRGLAAARNAGLRRARGRVLVFVDDDCAVHCDYLRDLERHYASGEQGLIRGGRVELGDPRDLPFTIKRSRVCERLTPDIHPGGFVLGCNMTMHRDVAARIGDFDERFGAGGPLRSAEDTDYLVRAVLLGIPVEYVPDMTIFHHHGRRDRKAIEKLHRDYSLGNGGLCLKHIRHAPWLLRHFYWAARGALRELAGGPAFDRDLDLSHRPIVGMNVLGAARYALLLLARRPQAEPARQDQQANAEAPLLEHHHHHH” the protein production was “failed”.
In the case of “MPEWAAFVGLTGFLLTALLGLARLSQGAVRSDGGVSSTVDGVSMADRDPTIPRFETQRAAAQRQQMRDTLAPSDVSTGALLANVAFTQGLFGVLLVAGAFYFEIPASAFGVTSDALSTGLPAVAIGIGAGIGFWVGNEGAAALADGFGVTFDESLRELLAPDSPGGWVILLGGVLPVIAIVEELLFRAAAIGVPVAGLNAPAWAMAIVASVAFALGHGAQGRVGIVVTGTLGLALAGLFIATNSLLAVVVAHYLVNALELLVHEGLGVDRLWA”, the protein production is reported as “failed”.

Source: a protein production outcome set (Wang et al. 2014)
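Also: failed if final PepcDB status was selected cloned or expressed and not failed if soluble or beyond.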
